Results on one substance are retold here after patent US20240102992A1.

In this assay the target is canine CD20 with C-terminal FLAG tag, expressed on A20/cCD20/luc or EL-4/cCD20/luc cells (dog) (UniProt Q3C2E2). The experiment in a line: cell-based or functional assay.

A value given as a limit tells only on which side of the number the result lay.

Sequence of UniProt Q3C2E2 (Q3C2E2 other isoform, or with tags, fused parts or gaps): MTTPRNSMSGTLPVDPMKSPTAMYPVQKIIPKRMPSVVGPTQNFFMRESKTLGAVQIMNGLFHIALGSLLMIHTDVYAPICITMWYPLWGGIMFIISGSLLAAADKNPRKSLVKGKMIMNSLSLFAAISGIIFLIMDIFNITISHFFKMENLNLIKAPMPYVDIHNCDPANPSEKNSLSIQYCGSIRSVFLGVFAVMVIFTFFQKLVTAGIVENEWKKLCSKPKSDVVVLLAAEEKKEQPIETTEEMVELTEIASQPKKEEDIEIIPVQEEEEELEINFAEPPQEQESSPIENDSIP

On to “Dog IgG antibody (Jackson ImmunoResearch Laboratories, Inc.)”, for which the cell-mediated cytotoxicity activity (lysis rate); targets A20/cCD20/luc and EL-4/cCD20/luc, effectors NK-92/cCD16γ, E/T 10:1 was under 25%.
